Test: yeast display, Sf9 membrane polyspecificity reagent, FACS + sequencing; frameworks hold sequencing errors
Summary of the method: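 Galactose induction of a Saccharomyces cerevisiae BJ5465 synthetic nanobody display library ran 36–48 hours. The cells were then stained for 1 hour at 4 °C with 10% biotinylated, detergent-solubilized Sf9 membrane reagent, pulled down on streptavidin microbeads and FACS-sorted into low and high (top ~1%) gates on expression and reagent-binding fluorescence. Labels for polyreactivity follow the gate of origin.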

Row | Sequence | polyreactivity (PSR sort gate)
1 | QVQLVESGGGLVQAGGSLRLSCAASGRIFKSYAMGWYRQAPGKERELVAIIRSSGTTYYADSVKGRFTISRDNAKNTVYLQMNSLKPEDTAVYYCNADGYPLGDKYDYWGQGTQVTVSS | high polyreactivity
2 | QDQLVESGGCLVQAGGSLRLSCAASGSIFYVNAMGWYRPAPRKERELVAGISRSGGRTYYADSVKGRFTISRDNAKNTVYLHMNSLIPEDTAVYYCAALVGRIWYGLDYWGQGTQVTVSS | high polyreactivity
3 | QVQLVESGGGLVQAGGSLRLSCAASGITFYGYAMGWYRQAPGKERELVAAITSGGSTNYADSVKGRFTISRDNAKNTVYLQMNSLKPEDTAVYYCAADLWAYGYYYVGYDYWGQGTQVTVSS | low polyreactivity
4 | QVQLVESGGGLVQAAGSLRLSCAASGSIFTYYAKGCYRQATRKERELVATINRIGGNTYDADSVKGRFTLSSDNAKNTVYLQMNRLKPEDNAVYYCAAKPTYRGYGYGSWGQGTQVTVSS | low polyreactivity
5 | QVQLVESGGGLVQAGGSLRLSCAASGSIFLPYAMGWYRQAPGKERELVATIRGRGGSTYYADSVKGRFTISRDNAKITVYLLMNSPKPEDTAVYYCAAKNGDRYARGYWGQGTQVTVSS | high polyreactivity
6 | QVQLVESGGGLVQAGGSLRLSCAASGSTFYPYAMGWYRQAPGKERELVAAINWSGGTTYYADSVKGRFTISRDNAKNTVYLQLNSLKPEDTAVYYCAADGYPPGYGYWGQGTQVTVSS | low polyreactivity
7 | QVQLVESGGGLVQAGGSLRLSCAASGFTFEWYTMGWYRQAPGKERELVADISGDGSTYYADSVKGRFTISRDNAKNTVYLQMNSLKPEDTAVYYCAASFWGIAMGYWAQGTQVTVSS | high polyreactivity
8 | QVQLVESGGGLVQAGGSLRLSCAASGIIFYHNTMGWYRQAPGKERELVAAISGSGGSTYYADSVKGRFTISRDNEKNTVYLQMKSLKPEDTAVYYCAAYRRRYPGFDYWGQGTQVTVSS | high polyreactivity
9 | QVQLVESGGGLVQAGGSLRLSCAASGSTFSWYTMGWYRQAPGKERELVAAISWSGGRTYYADSVKGRFTISRDNAKNTVYLQMNSLKPEDTAVYYCAAYDYWYSLGVYQFYYWGQGTQVTVSS | low polyreactivity
10 | QVHLVESGGGLVQAGGSLRLSCAASGRILPFYAMGWYRQAPGKERELVATISWTSDSTYYADSVKGRFTISRDNAKNTVYLQMNSLKPEDTAVYYCAREYTYTYASTVIYDHWGQGTQVTVSS | low polyreactivity
11 | QVQLVESGGGLVQAGGSLRLSCAASGFTFPYYAMGRYRQAPGKERELVAAITRSGGSTNYADSVKGRFTISRDNAKNTVYLQMNSLKPEDTAVYYCNAPPGYSSTRNGYWGQGTQVTVSS | high polyreactivity
12 | QVQLVESGGGLVQAGGSLRLSCAASGSIFSYYARGWYRHAPGKERELVADITWDGGSTYYADSVKGRFTISRDNAKNTVYLQMNSLKPEDTAVYYCAAGRIVWSDYYVYTLYDYWGQGTQVTVSS | high polyreactivity
13 | QVQLVESGGGLVQAGGSLRLSCAASGRILKVYAMGWSRQAPGKERELVAAITSGSSTYADSVKGRFTISRDNAKNTVYLQMNSLKPEDTAVYYCAAVFWVDILPGDYWGQGTQVTVSS | low polyreactivity
14 | QVQLVESGGGLVQAGGRLRLSCAASGIIRGSYAMGWYRQAPGKERELVAGINSGGGTYYADSVKGRFTISRDNAKNTVYLQMNSLKPEDTAVYYCNARKSSGLSSYDWYSWEYGYWGQGTQVTVSS | low polyreactivity
15 | QVQLVESGGGLVQAGGSLRLSCAASGRIFPGYAMGWYRQAPGKERELVASISRTGRTNYADSVKGRFTISRDNAKNTVYLQMNSLKPEDTAVYYCAAEYYHSSYGYGYWGQGTQVTVSS | low polyreactivity
16 | QVQLQGSGGGLVQAGGSLRLSCAASGNIFDADIMGWYRQAPGKESELVASITDGGSTNYADSVKGRFTISRDNAKNTVYLQMNSLKQEDTAVYYCAAIAYPDIPTYFDYDSACFYWSQGTQVTVSS | high polyreactivity
17 | QVQLVESGGGLVQAGGSLRLSCAASGRTFLPNDMGWYRQAPGKERELVAAITDSGGDTYYADSVKGRFTISRDNAKNTVYLQMNSLKPEDTAVYYCASDYYYYGSYYPVEYWGQGTQVTVSS | high polyreactivity
18 | QVQLVESGGGLVQAGGSLRLSCAASGRTFTWNVMGWYRQAPGKERELVAAITTDDRTYADSVKGRFTISRDNAKNTVYLQMNSLKPEDTAVYYCATVVAWSSRPVGEDYWGQGTQVTVSS | low polyreactivity
19 | QVQLVESGGGLVQAGGSLRLSCAASGSTFYTYAMGWYRQAPGKERELVAAITFSGDSKYYADSVKGRFTISRDNAKNTVYLQMNSLKPEDTAVYYCAALQKRYYRSWVGYDYWGQGTQVTVSS | high polyreactivity
20 | QDQLVESGGGLVQAGGSLRLSCAASGSIFTSNAMGWYRQAPGKERELVAVITGSTGRTHYADSVKGRFTISRDNAKNTVYLQMNSLKPEDTAVYYCAAGLTFVTNFDYWGQGTQVTVSS | low polyreactivity
21 | QLQLVESGGGLVQAGGSLRLSCAASGSIFRFNAMGWYRQAPGKERELVAAISGDSGSTYYADSVKGRFTISRDTAKNTVYFQMNCLKPEDTAVYYCNARHGKIIFYLERYDYWGHGTQVTVSS | low polyreactivity
22 | QVQLVESGGGFVQAGGSLRLSCAASGRIFLWNAMGWYRQAPGKERELVAGIRWSTGSTYYADSVKGRFTISRDNAKYTVSLQMYSLKRDDTAVYYCNARSLATGSKVPARGYWGQGTQVTVSS | high polyreactivity

Row | Sequence | polyreactivity (PSR sort gate)
23 | QVQLVESGGGLVQAGGSLRLSCAAYGRTFGLYAMGWYRQAPGKERELVAAISWGGGRTYYADSVKGRFTISRDNAKHTVYLQMNSLKPEDTAVFYCNAVYSPRYYVGGYDYWGQGTQVTVSS | high polyreactivity
24 | QVQLVDSGGGLVQAGGSLRLSCAASGSIFPYNDMGWYRKAPGKERELVARITNGGSTNYADSVKGRFTISRDNAKNTVYLQMNSLKPEDTAVYYCNKDGTQEFAPDGHEYWGQCTQVTVSS | low polyreactivity
25 | QVQLVESGGGLVQAGGSLRLSCAASGITFVLNVMGWNRQAPGKERELVAAISASGGRTYYADSVKGRFTISRDNAKHTVYLQMNSLKPEDTAVYYCNAVLPRYTFRSGVFEYDWGQGTQVTVSS | high polyreactivity
26 | QVQLVESGGGLVQAGGSLRISCAASGRIFQHYAMGWYRQAPGKERELVAAISWRGGSTYYADSVKGRFTISRDNAKNTVFLLMNSLKPEDTAVYYCAAGYRGRIPGFDYWGQGTQVTVSS | high polyreactivity
27 | QVQLVESGGGLVQAGGSLRLTCAASGSTFDYNTMGWYRPAPGKETELVAAISESGGSTYYADSVKGRFTISRDNAKNTVYLQMNSLTPEDTAVYYCATDDFGGYFGEYDYWGQGTQVTVSS | low polyreactivity
28 | QVQLVESGGGLVQAVGSLRLSCAASGSISVYYAMGWYRQAPGKEMELVAAISRSGGRTYYADSVKGRFTISRDNAKNTVYLQMNSLKPEDTAVYYCAAGYSSLRRFGVYYWGQGTQVTVSS | high polyreactivity
29 | QVQIVESGGGLVQAGGSLRLSCAASGRTTSTNAMGWYRQAPGKERELVASISWRGGSTYYADSVKGRFTISRDNAKNTVYLEMNCLKPEDTAVYYCAASWPRWWRFGYWGQGTQVTVSS | low polyreactivity
30 | QVQLVESGGRLVQAGGSLRLSGAASGIIFRTNAMGWSRQAPGKEREFVAAISAGGTRTYYADSVKGRFTISRDYAKNTVYLQMNSLKPEDTAVYFCAAASGYDYWGQGTQVTVSS | high polyreactivity
31 | QVQLVESGAGLVQAGGSLRRSCAASGGNFYYNVMGWYRQAPGKERELLAAIDTSGGNRYADSVKGRFTISRDNAKNTVYLQMNSLNPEDTAVYYSAVGAYWYFGIVSYGYDYWGQGTQVTVSS | low polyreactivity
32 | QVHLVESGGGLVQAGGSLRLSCAATGSTFRYNAMGWYRQAPGKERELVAAISWRGGSTYYADSVKGRFTISRDNAKNTVYLQMNSLKPEDTAVYYCAADRYPSTTYPLSDYNYWGQGTQVTVSS | high polyreactivity
33 | QVQLVESGGGLVQAGGSLRLSCAASGFTFHPNAMGWYRPAPGKERELVAAISTRGGSTAYADSVKGRFTISRDNAKNTVYLLMNSLKPEDTAVYYCAARTSSTKYYYWGQGTQVTVSS | high polyreactivity
34 | QVQLVESGGGLVQAGGSLRLSCAASGRTFFPYAMGWYRQAPGKEREFVAAITKTDDSTYYADSVKGRFTISRDTSKNTVYLQMNSLKPEDTAVYYCNAGDTQMRFYYGGQGTQVTVSS | low polyreactivity
35 | QVQLVESARGLVKAGGSLLLSCAAYVSIFNHYAMGWYRQAPGKESELVARITNRSGNTYYADSVKGRFTISRDNAKNTGYLQLNSLKGEDTEVYYCAATKSLGRYNMDYWGPGTQVTVSS | low polyreactivity
36 | QVQLVESRGGLVQAGGSLRLSCAASGRTFWYYAMGWYRQAPGKEMELVATITGSGGTTYYADSVKGRFTISRDNAKNTVYLQMNSLKREDTAVYYCAKEQHWYIYGPAEVDYWGQGTQVTVSS | high polyreactivity
37 | QVQLVESGGGLVQSGGSLRLSCAASGRIFYYNAMGWYRQAPGKERELVAAITSSSGSSTYYADSVKGRFTISRDNAKNTVYLQMNSLKPEDTAVYYCAADATFIIRYLSRSDYWGQGTQVTVSS | low polyreactivity
38 | QVQLVESGVGLVQAGGSHRLSCAASGSILAGNVMGWYRQAPGKERELVAAITRSGTSTYYADSVKGRFTISRDNAKNTVYLQMNSLKPEDTAVYYCNSVRRVGFRGRYTDGYWGQGTQVTVSS | high polyreactivity
39 | QVQLVESGGGLVQAGGSLRLSCAASGSIFSANVMGWYRQAPGKERELVAAITRGGGTYYADSVKGRFTISRDNAKNTVYLQMNSLKPEDTAVYYCNDDYTLSVYGTTYWYNYWGQGTQVTVSS | high polyreactivity
40 | QVQLVESGGGLVQAGGSHRLSCAASGSTFYGYAMGWYRQAPGKESELVAAIRFSGDRTYYADSVKGRFTISRDNAKNTVYLQMNSLKPEDTAVYYCAAYGYPYQRKYGSWGQGTQVTVSS | high polyreactivity
41 | QVQLVESGGRLVQAGGSLRLSCPASGIIRGTNAMGGYRQAPGKERELVASITSGAGITYYADSVKGRFTISRDNAKNTVYLQMNSLKPEDTAVYYCNTYPYLWGQGTQVTVSS | low polyreactivity
42 | QVQLVESGGGLVQAGGSLRLSCAASGNTFDRYAMGWYRQAPGKERELVAAITRSGGNTYYADSVKGRFTISRDNAKNTVYLQMNSLKPEDTAVYYCAAYFFPYYTGYGYWGQGTQVTVSS | high polyreactivity
43 | QVQLVESVGGLVQAGGSLRLSCAASGLTFGGNAMGRYRQAPGKVRELVAAISGSGGRTYYADSVKGRFTISRDNAKNTVYLQMNSLKPEDTAVYYCNAATKRRTSDYWGQGTQVTVSS | high polyreactivity

Source: the nanobody polyreactivity screen of Harvey et al. (2022)
